From article PMC6050342, “Molecular identification and characterization of rhodaneses from the insect herbivore Pieris rapae” (Scientific Reports, 2018)

Substrate: O=S(O)(O)=S
Test: purified protein
Type: biochemical, Pieris rapae
Details: 50 mM KCN, Tris-HCl pH 8.5, 30 °C

B1: PrTST2 (Pieris rapae) (protein)
chain: MGNSNSNSTMVDPVRFVSYEDMLKVIHEPEKVIIDVRNPDEIESTGKIPSSINIPLNTVSDTLASMPDDEFLKQYQRPKPSASDELIFYCKSGRRSQEALDKALKLGFSNSKSYLGSWEDWSSKQK
notes: active-site Cys-90
Km: 840 ± 270 µM | Vmax: 14.2 µmol/min/mg
